Experimental data: the supplement of paper PMC11865577

Key:
Experiment in all cases: pull-down binding Z-score (relative to library population); higher = stronger binding
[1] = test system: TO-N3-2 (biotin conjugate); settings: RNA library: Library-2
Procedure, shortened: (§1)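 To score binding, a beads-only signal was subtracted, barcoded replicate probes were averaged with the highest and lowest dropped, and the value was converted to a Z-score using the library mean and standard deviation. The input was 1 μg of Cy5- or Cy3-end-labelled RNA library, heat-folded in phosphate/NaCl/KCl buffer and mixed for 60 min at 25 °C with streptavidin beads carrying 100 pmol of biotin-conjugated small molecule. Bound RNA was eluted in hot SDS and hybridised to a DNA barcode microarray at 55.5 °C for 20 h.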

[2] = test system: TO-3-N3 (biotin conjugate); settings: RNA library: Library-2
Procedure, shortened: as §1

[3] = test system: G-clamp-N3 (biotin conjugate); settings: RNA library: Library-1 (pre-miRNA loops + repeats)
Procedure, shortened: as §1

[4] = test system: TO-3-N3-2 (biotin conjugate); settings: RNA library: Library-2
Procedure, shortened: as §1

TO-N3 (biotin conjugate) = settings: RNA library: Library-2
Procedure, shortened: as §1

Sequence	pull-down binding Z-score [1]	pull-down binding Z-score [2]	pull-down binding Z-score [3]	pull-down binding Z-score [4]	pull-down binding Z-score (TO-N3 (biotin conjugate))
CUUUCCUCAGCUGAUUUCUUUCUGGGGAGAG [hsa-mir-5186]	-1.08	-0.144	-0.72	-0.279	-0.52
CUUUCCUUUUUGUCUGUACUGGGAAG [hsa-mir-373]	-1.12	-0.365	0.709	-0.328	-0.709
CUUUCUGUGACUUUAAAAGUAAG [hsa-mir-302b]	-0.999	-0.538	-0.444	-0.355	-0.844
CUUUCUGUUGGCUAAAAGAAAAGAAAG [hsa-mir-518e]	0.0576	-0.396	1.11	0.129	-0.366
CUUUCUGUUGUCUAAAAGAAAAGAAAG [hsa-mir-520d]	-0.127	-0.444	0.0447	-0.331	-0.415
CUUUCUGUUGUCUAAAAGAAAAGAACG [hsa-mir-521-1]	0.0505	-0.211	0.795	0.0499	-0.124
CUUUCUGUUGUCUGAAAGAAAAGAAAA [hsa-mir-522]	0.775	-0.109	-0.228	0.118	0.617
CUUUCUGUUGUCUGAAAGAAAAGAAAG [hsa-mir-520c_520b_519c_519b]	0.38	0.176	0.44	0.102	0.458
CUUUCUGUUGUCUGAAAGAAAGGAAAG [hsa-mir-519a-1_519a-2]	-0.239	-0.467	-0.55	-0.315	-0.572
CUUUCUGUUGUCUGAGAGAAAAGAAAG [hsa-mir-520a]	-0.553	-0.684	0.6	-0.385	-0.74
CUUUGCUACUGCUC [hsa-mir-6072]	0.112	-0.202	-0.385	-0.0975	-0.000442
CUUUGGUGGCUAUGGUUGACUGGGCCACUCAGAG [hsa-mir-4468]	0.846	-0.366	2.29	-0.332	-0.123
CUUUGUCAUUAAAACCAAUAACAAAA [hsa-mir-548ap]	-0.638	0.331	-0.92	0.223	0.0976
CUUUGUCUGACUACAAUAUUCAAAAG [hsa-mir-4426]	-0.569	0.0486	-1.96	0.0275	-0.0832
CUUUGUGAUUUUAUGAGAACAAAG [hsa-mir-3173]	-1.27	-0.938	0.801	-0.486	-1.22
CUUUUAGAGUAAUUGUGAAACUGUUUUUCAAAG [hsa-mir-562]	-0.462	-0.531	0.748	-0.0695	-0.769
CUUUUAUAUCAAGGCACAUAAAAG [hsa-mir-3910-1]	-1.17	-0.493	-1.7	-0.271	-0.626
CUUUUAUGUGCCUUGAUAUAAAAG [hsa-mir-3910-2]	-0.682	-0.556	-0.124	-0.297	-0.644
CUUUUGGAAAAUAGAAAAG [hsa-mir-3184]	-0.0491	-0.24	1.56	0.161	-0.433
CUUUUGUUCAAAUAAAAAUGCAAAAG [hsa-mir-651]	-1.25	-0.729	-0.842	-0.367	-1.06
CUUUUUGCCACCUGAGCACAGUCAGCAGUCAGCAUAAAA [hsa-mir-4275]	1.15	0.6	0.39	0.292	1.13
CUUUUUGCUGAUGGAGGGUCUUGCCUCCAUGGGGAUGGCUG [hsa-mir-4502]	0.571	0.828	1	0.159	0.938
GAAAAAUCCCUGUUAACUUUC [hsa-mir-6833]	0.133	-0.143	-0.686	0.174	-0.225
GAAAACUUUGGAGAAAAAUUUUC [hsa-mir-4659a]	-0.857	-0.765	-0.714	-0.258	-1.04
GAAACAUCUUUUAC [hsa-mir-4514]	-0.469	-0.428	-0.862	-0.191	-0.551

Sequence	pull-down binding Z-score [1]	pull-down binding Z-score [2]	pull-down binding Z-score [3]	pull-down binding Z-score [4]	pull-down binding Z-score (TO-N3 (biotin conjugate))
GAAAUAGGCUGCGAAGAUAACAGUAUUUC [hsa-mir-3942]	-0.482	-0.872	0.773	-0.17	-0.979
GAAAUGUGUGGAAGAUGGCAUUUC [hsa-mir-4482]	0.278	-0.346	2.74	-0.00894	-0.302
GAACACUAUUCCAUUGUGUUC [hsa-mir-588]	-1.31	-0.971	0.0194	-0.701	-1.33
GAACCCAAGAAAAGCUGACUUGGAGGUCCC [hsa-mir-4667]	1.27	1.21	-0.432	0.578	1.47
GAACCCAGGGAGCCAGACUGCCUGGGUUC [hsa-mir-607]	-0.0198	1.05	-0.0852	-0.182	0.843
GAACUAACUAACCAGAACUAUUUUGUUC [hsa-mir-4652]	-0.742	0.249	-1.48	0.0681	-0.0697
GAACUUUUACGGUGAACCAGGAGGUUC [hsa-mir-629]	-0.0865	0.0537	-0.428	-0.139	-0.0515
GAAGAAGAAGAAGAAGAAGAAGAAGAAGAAGAAGAAGAAGAAGAAGAA [r(GAA)16]	3.94	1.7	-1.35	3.35	3.53
GAAGAUUCUGAAAAUCACUAACU [hsa-mir-6878]	-0.0867	0.159	-1.6	0.167	0.273
GAAGCACUGGUUAUGAUUUGCAUC [hsa-mir-3126]	0.429	-0.087	-0.739	0.159	0.0904
GAAGCCGCUCCCACCUGACCCUCACGGCCUC [hsa-mir-3605]	1.46	1.3	-0.691	0.468	1.33
GAAGCCUUGAUCAGAAGCUAGGAAGGCUUC [hsa-mir-4762]	0.593	0.782	1.95	0.433	0.654
GAAGCGAGAUGUUUGUCUAAA [hsa-mir-6835]	0.915	0.00611	-0.211	0.262	0.398
GAAGCUCCUAUAGCUCCUGUAGCUUC [hsa-mir-578]	0.587	0.48	-0.978	0.166	0.407
GAAGCUGUAAGACACAGCUAAGCUUU [hsa-mir-30d]	0.0477	-0.376	-0.32	-0.00751	-0.169
GAAGCUGUAAGGUGUUCAGAGGAGCUUU [hsa-mir-30e]	1.1	0.57	2.63	0.908	0.977
GAAGCUGUGAAGCCACAGAUGGGCUUU [hsa-mir-30a]	0.641	-0.0778	0.763	0.0568	0.224
GAAGGAAGGCAAGGCUGUCUGUCCAUC [hsa-mir-4800]	0.685	0.852	-1.01	0.513	1.03
GAAGGGAAGCUGGGAACCUGACUGCCUC [hsa-mir-6867]	1.66	0.688	-0.151	0.402	0.961
GAAGGGGAGUUUCCCUCUAUUCCCUUC [hsa-mir-3679]	-0.594	0.265	-0.729	-0.155	-0.0396
GAAUGAAAAAAUGAAUCAUC [hsa-mir-421]	-0.0724	-0.311	0.509	0.0689	-0.29
GAAUUCGAUUCAUCAAAGCGAGUC [hsa-mir-485]	0.225	-0.128	-0.234	0.143	0.0539
GAAUUCGCUUUAUUUAUGUUGAAUC [hsa-mir-377]	-0.874	-0.514	-0.856	-0.33	-0.944
GACAAUAUGUAUAAUGUUCAUAAGUCAUUC [hsa-mir-384]	-0.0426	0.197	0.231	0.227	0.444
GACACCUGGAUUCAGAGAACAUGUC [hsa-mir-1276]	0.137	-0.322	-0.716	-0.0538	-0.156

Sequence	pull-down binding Z-score [1]	pull-down binding Z-score [2]	pull-down binding Z-score [3]	pull-down binding Z-score [4]	pull-down binding Z-score (TO-N3 (biotin conjugate))
GACACUUUCACUAUAUAUAGUGGC [hsa-mir-3156-3]	-0.533	-0.049	-0.25	-0.0836	-0.354
GACAGGCUGGCCUCUGGAUGACCUGC [hsa-mir-5189]	1.37	1.18	0.679	-0.186	1.4
GACAGGGAAAAGCACACAAGGAACUUGUC [hsa-mir-3909]	-0.0273	-0.138	0.557	0.112	-0.0969
GACAGGGCAGAGGGUUGCGCCCCCUC [hsa-mir-6511b-1_6511b-2_6511a-2_6511a-3_6511a-1_6511a-4]	1.23	0.412	1.05	0.284	0.754
GACAUCCCUCAUCUGUUUCUCACUGGUGUC [hsa-mir-6830]	-0.507	0.191	-0.521	0.244	-0.0985
GACAUCUGGGCCAACUCUGAUCUC [hsa-mir-6515]	0.777	-0.163	-1.32	-0.126	0.113
GACAUGCUCUGACUCCCCUGAUGUC [hsa-mir-6852]	1.18	-0.0796	0.588	0.244	0.286
GACCAAAAGUCAACAUUAAACAACAAAUCUUGGCC [hsa-mir-5708]	-0.998	-0.733	-1.3	-0.109	-1.02
GACCCCCAUGCACCCCUGUGGGCCCCUGGCAUC [hsa-mir-1257]	1.21	0.219	-1.71	-0.0626	0.727
GACCGUUGGCAUCUUAAUUACCCUC [hsa-mir-532]	0.318	-0.448	-0.675	-0.339	-0.233
GACCUGGAUGUGUAGGAGCUAAGACACACUCCAGGGG [hsa-mir-920]	1.41	0.595	1.89	0.531	0.902
GACGAUUUGAAUUAAUAAAUUC [hsa-mir-579]	-0.419	0.329	0.799	0.0871	0.153
GACGGCGCCCGCCCUGGCCCUGGC [hsa-mir-4745]	1.96	0.678	0.486	0.0825	1.16
GACGGUGGGGGCCACGCUGACAGCCGC [hsa-mir-6804]	1.89	2.01	1.9	0.752	2.24
GACGUCCAAUCUCUUUGGGACGCC [hsa-mir-2682]	-0.436	0.551	2.24	-0.309	0.419
GACGUGAAGGGACCACAUCCCGCUUCAUGUC [hsa-mir-4697]	0.229	0.541	-0.0598	-0.362	0.374
GACUGCUCAAGGUCAAAGGGGUC [hsa-mir-3918]	0.66	0.174	2.12	0.119	0.367
GACUGGACAACAUGAUGAGCCCAAACCAAUC [hsa-mir-5092]	0.433	-0.245	-1.85	0.166	0.0433
GACUUCCAUGACAUGAAAUAGGAAGUC [hsa-mir-616]	-0.705	-0.453	0.351	-0.183	-1.12
GACUUGAGAUUAUAGUC [hsa-mir-3685]	-0.546	0.268	-0.369	-0.13	-0.0763
GACUUUUCUAUUUUCCAAAAGC [hsa-mir-423]	-0.573	-0.475	-0.657	-0.142	-0.568
GAGAAACUUGAGGUCUCUGGGAGUUGCUUAAACCAGUUGACCGUAACCUGGCCAGAGAAUUCUGAUAGUGUC [hsa-mir-6740]	1.32	-0.13	1.09	-0.00402	0.571
GAGAACUCACGGUGCCUGUGGUUCGA [hsa-mir-3125]	1.49	-0.41	-0.479	-0.203	0.312
